For assay [1], the target named is T1, recombinant human CD40L (human, UniProt P29965 108-261, limits assumed).
T1 construct: Bought soluble recombinant protein (R&D, HEK, 6420-CL/CF); also called hCD40L; human CD40L (HEK, R&D)
T1 sequence: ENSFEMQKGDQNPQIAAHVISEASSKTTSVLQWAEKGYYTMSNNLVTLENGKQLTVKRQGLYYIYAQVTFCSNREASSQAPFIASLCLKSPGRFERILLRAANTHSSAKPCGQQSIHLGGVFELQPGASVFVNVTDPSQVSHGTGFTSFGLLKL
In words: FACS ligand competition, biotinylated human CD40L on human CD40 HEK cells; * suboptimal curve fit.

Assay [2] concerns the target T2, human CD40L expressed on CHO cells (human, UniProt P29965 1-261).
T2 sequence: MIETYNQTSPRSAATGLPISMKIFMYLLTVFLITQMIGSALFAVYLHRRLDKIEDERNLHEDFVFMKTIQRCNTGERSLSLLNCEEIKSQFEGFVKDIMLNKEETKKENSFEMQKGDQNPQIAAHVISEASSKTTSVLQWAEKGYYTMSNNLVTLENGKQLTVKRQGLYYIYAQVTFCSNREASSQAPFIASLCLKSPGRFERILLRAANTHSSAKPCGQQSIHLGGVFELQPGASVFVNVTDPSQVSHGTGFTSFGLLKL
In words: cell-based or functional assay.

The target in assay [3] is T3, recombinant mouse CD40L (mouse, UniProt P27548 112-260, limits assumed).
T3 construct: also called mouse CD40L (R&D NSO)
T3 sequence (looked up): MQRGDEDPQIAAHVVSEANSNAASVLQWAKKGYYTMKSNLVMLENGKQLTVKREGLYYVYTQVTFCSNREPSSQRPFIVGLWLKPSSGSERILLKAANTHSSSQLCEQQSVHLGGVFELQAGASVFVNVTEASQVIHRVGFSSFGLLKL
Briefly: SPR (ProteOn), immobilised recombinant mouse CD40L 3000-4000 RU; member of the lead panel. How it is done: To assess binding to mouse CD40L (UniProt accession number: P27548), ProteOn GLC Sensor Chips were coated with 3000-4000 RU of recombinant mouse CD40L (R&D NSO) in 10 mM acetate buffer pH5.5. Purified monovalent anti-CD40L Nanobodies in ProteOn running buffer: PBS/Tween (phosphate buffered saline, pH 7.4 with 0.005% Tween 20) were flown over the sensor chips at 100 nM. Processed curves were used for off-rate analysis based on the Langmuir dissociation model.

Assay [4] deals with T2, human CD40L expressed on CHO cells. Briefly: cell-based or functional assay. The source holds these as a separate data set.
Assay [5] concerns the target T1, recombinant human CD40L. Briefly: FACS ligand competition, biotinylated human CD40L on human CD40 HEK cells.
Assay [6] deals with T1, recombinant human CD40L. In words: FACS ligand competition, biotinylated human CD40L on cyno CD40 HEK cells. How it is done:
Cross-reactivity to cynomolgus CD40L (UniProt accession number: G7PG38) and rhesus CD40L (UniProt accession number: G7N4M5) was tested in a ligand competition assay. […] 2×10⁵ cells (transiently transfected HEK cells) were incubated with dilution series of the purified Nanobodies in FACS buffer for 30 minutes at 4° C. Cells were then washed 3× and finally resuspended in FACS buffer containing Streptavidin-PE (BD Pharmingen, #554061). This mixture was incubated for 30 minutes at 4° C. Cells were further handled as set out above.

In assay [7] the target is T1, recombinant human CD40L. Briefly: FACS ligand competition, biotinylated human CD40L on rhesus CD40 HEK cells.
For assay [8], the target named is T4, hRANKL (TNF11) (human, UniProt O14788 140-317, limits assumed).
T4 sequence (looked up): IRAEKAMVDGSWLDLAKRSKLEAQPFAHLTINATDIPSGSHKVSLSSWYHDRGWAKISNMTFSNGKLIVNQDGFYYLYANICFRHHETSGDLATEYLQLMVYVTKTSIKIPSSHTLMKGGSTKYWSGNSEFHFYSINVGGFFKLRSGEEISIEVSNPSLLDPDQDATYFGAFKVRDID
In words: competition ELISA on coated human CD40L, fixed Nanobody, dilution series of competitor. The text has this:
(§1) The Basic Local Alignment Search Tool (BLAST) was used to identify the closest related protein in the human protein database. […] A fixed concentration of Nanobody was used together with a dilution series of competitor (TNFα, HVEM-L (TNF14) and hRANKL (TN F11); CD40L was used as positive control), starting at a 100-fold excess. The Nano bodies were detected with anti-FLAG-HRP (Sigma (A8592)).
In general terms: ELISA stands for enzyme-linked immunosorbent assay.

Assay [9] addresses HVEM-L (TNF14) (human, UniProt O43557 74-240, limits assumed). Described as above.
Description: as §1

Assay [10] addresses human TNFα (human, UniProt P01375 77-233). Described as above.
Description: as §1

For assay [11], the target named is T5, rat CD40L on transiently transfected HEK cells (rat, UniProt Q9Z2V2 1-260).
T5 construct: whole, on cells
T5 sequence (looked up): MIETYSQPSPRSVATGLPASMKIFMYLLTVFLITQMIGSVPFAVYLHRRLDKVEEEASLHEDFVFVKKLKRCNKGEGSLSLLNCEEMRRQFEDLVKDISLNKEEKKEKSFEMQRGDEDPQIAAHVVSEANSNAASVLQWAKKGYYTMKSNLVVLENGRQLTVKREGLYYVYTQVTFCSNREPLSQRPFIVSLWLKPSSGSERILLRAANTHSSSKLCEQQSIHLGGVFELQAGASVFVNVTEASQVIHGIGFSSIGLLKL
Briefly: FACS on HEK cells transiently transfected with rat CD40L. How it is done: Cross-reactivity to rat CD40L (UniProt accession numbers: Q9Z2V2 and Q9R254 (secondary)) was tested in FACS. Purified Nanobodies were analyzed on FACS for binding to rat CD40L. 2×10⁵ cells (transiently transfected rat CD40L HEK cells) were incubated with the purified Nanobodies in FACS buffer for 30 minutes at 4° C. Cells were washed 3×, re-suspended and incubated for 30 minutes at 4° C. Cells were washed again 3× and dead cells were stained with TOPRO3 (Molecular probes, T3605). Samples were analyzed on a FACSarray™ (BD Biosciences).

Broadly, the IC50 is the concentration that gives 50% inhibition.

Sequence of human TNFα (P01375 77-233 limits assumed): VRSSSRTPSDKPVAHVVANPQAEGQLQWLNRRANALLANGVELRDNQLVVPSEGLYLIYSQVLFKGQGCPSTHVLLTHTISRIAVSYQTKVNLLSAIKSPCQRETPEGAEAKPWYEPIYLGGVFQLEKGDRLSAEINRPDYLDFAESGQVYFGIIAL
Sequence of HVEM-L (TNF14) (O43557 74-240 limits assumed): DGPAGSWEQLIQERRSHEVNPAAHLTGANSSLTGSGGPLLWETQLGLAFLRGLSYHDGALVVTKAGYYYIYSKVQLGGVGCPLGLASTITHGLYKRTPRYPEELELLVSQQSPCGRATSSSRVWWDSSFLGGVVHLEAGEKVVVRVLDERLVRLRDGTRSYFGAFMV

B1: C0100029C10 (VHH)
VHH: EVQLVESGGGLVQPGGSLRLSCAASGFTLDYYALGWFRQAPGKEREGVSCISSTESSDGSTYYADSVKGRFTISRDSAKNTVYLQMNSLKPEDTAVYYCATDQTLFGVCRGIATPDPGFWGQGTLVTVSS
notes: Monovalent Nanobody; tag of the monovalent form not spelled out; also called C01000029C10
Regarding B1, the 50% inhibitory concentration (IC50) in [1] turned out to be 0.142 nM; in assay [6], 8.07 nM; in [7], 12.4 nM. The “Average IC50 (M), B-cell proliferation assay” value in assay [2] turned out to be 1.26e-09 M. The binding result in assay [3] is on record as “no binding (tested: 100 nM)”; in assay [8] it was “no binding (tested: competitor from a 100-fold excess)”; in assay [9], “no binding (tested: competitor from a 100-fold excess)”; in assay [10] it was “no binding (tested: competitor from a 100-fold excess)”; in assay [11] it was “no binding”. Moreover, the “IC50 (M), B-cell proliferation assay, +HSA” value in [4] stood at 1.06e-09 M. Also, the figures for the “% block (maximum observed effect)” value in assay [5], in assay [6] and in assay [7] were 98%, 81% and 87%, respectively.

(Values after patent US20180355050A1 (Ablynx, published 2018).)
